Results as given in patent publication US20240002497A1 (Merck Sharp & Dohme, published 2024).
Like-named read-outs stand apart in the source and are kept apart here. Each block holds one binder with its values, some of them ahead of it.

How the values were obtained:
[1] = molecular target: T1, rhNav1.7α+β1-β2-β3 (rhesus monkey α subunit with human β …); assay: binding FACS
T1 construct: P2A cleaves it into α, β1, β2, β3; also called rhNav1.7-beta1-beta2-beta3

[2] = molecular target: T2, huNav1.7α+β1-β2-β3 (human, UniProt Q15858 1-1988; Q07699 19-218; O60939 30-215; Q9NY72 23-215); assay: binding FACS
T2 construct: 5N11S variant; also called huNav1.7-beta1-beta2-beta3; huNav1.7α+Navβ1-Navβ2-Navβ3

[3] = molecular target: T3, huNav1.7α + β1 (human); assay: binding FACS, HEK
T3 construct: HEK293 cells; also called huNav1.7-beta1; huNav1.7-β1

[4] = molecular target: T4, huNav1.7α (human, UniProt Q15858 1-1988); assay: binding FACS, HEK
T4 construct: HEK cells expressing the α subunit without β subunits; also called huNav1.7 (alpha-subunit); Human Nav1.7α

[5] = molecular target: T5, rhNav1.7α + β1-β2-β3 (rhesus monkey); assay: competition FACS vs EC25 of 275B05(N93R), CHO FlpIn
T5 construct: also called rhNav1.7-beta1-beta2-beta3; rhNav1.7-β1-β2-β3

[6] = molecular target: T6, huNav1.7α + β1-β2-β3 (human, UniProt Q15858 1-1988; A5A6L6 19-218; O60939 30-215; Q2KI11 23-215); assay: as above
T6 construct: also called huNav1.7-beta1-beta2-beta3; huNav1.7-β1-β2-β3

[7] = molecular target: T5, rhNav1.7α + β1-β2-β3; assay: cell-based or functional assay
[8] = molecular target: T3, huNav1.7α + β1; assay: cell-based or functional assay
[9] = molecular target: T5, rhNav1.7α + β1-β2-β3; assay: competition FACS vs EC25 of 275B05(N93R), CHO FlpIn, + 50 µM human SA
[10] = molecular target: T6, huNav1.7α + β1-β2-β3; assay: as above
[11] = molecular target: T5, rhNav1.7α + β1-β2-β3; assay: cell-based or functional assay; remark: listed apart in the source
[12] = molecular target: T3, huNav1.7α + β1; assay: cell-based or functional assay; remark: listed apart in the source
[13] = molecular target: T5, rhNav1.7α + β1-β2-β3; assay: competition FACS IC50 with 50 µM human SA against without
[14] = molecular target: T6, huNav1.7α + β1-β2-β3; assay: as above
[15] = molecular target: T7, huNav1.7α + β1-β2-β3 (human Nav1.7α co-expressed with Navβ1, Navβ2 and Navβ3) (human); assay: binding FACS; minus = lower activity than reference
T7 construct: also called huNav1.7-beta1-beta2-beta3

[16] = molecular target: T8, muNav1.7α (murine Nav1.7α) (murine, UniProt Q62205 1-1984); assay: as above
T8 construct: HEK Jmp-In cells

[17] = molecular target: T5, rhNav1.7α + β1-β2-β3; assay: cell-based or functional assay; remark: listed apart in the source
[18] = molecular target: T3, huNav1.7α + β1; assay: cell-based or functional assay; remark: listed apart in the source
[19] = molecular target: T5, rhNav1.7α + β1-β2-β3; assay: competition FACS vs EC25 of 275B05(N93R), CHO FlpIn; remark: listed apart in the source
[20] = molecular target: T6, huNav1.7α + β1-β2-β3; assay: as above; remark: listed apart in the source
[21] = molecular target: T9, huNav157chim7 + β1-β2-β3 (human); assay: FACS, transiently transfected HEK293T cells
T9 construct: DI, DIII, DIV from Nav1.5α, DII from Nav1.7α; also called huNav157 chimera 7
Protocol: (§1) Binding of the ISVDs to cell-expressed Nav1.7α was detected via murine anti-Flag (Sigma, catalog #F1804). Briefly, cells were resuspended in FACS buffer (PBS, 10% FBS, NaN₃) and transferred to a 96-well V-bottom plate at 1×10^5 cells/well. Purified FLAG3-tagged ISVD was diluted in FACS buffer and added to the cells for 30 minutes at 4° C. […] Prior to the read-out, the samples were resuspended in 1 μg/mL propidium iodide (Sigma, catalog #P4170) to exclude dead cells. Between each step, the cells were centrifuged for 5 minutes at 200 grams and washed with 100 μL/well FACS buffer.
(§2) FACS binding studies (as described above) were performed on HEK293T cells transiently transfected with expression vectors encoding a huNav1.7α or rhNav1.7α fused at the C-terminus via a P2A viral peptide linker to a single polypeptide encoding sodium channel beta subunits Navβ1, Navβ2, and Navβ3 in tandem (β1-β2-β3; SEQ ID NO:21). Similarly, HEK293T cells transiently transfected with expression vectors encoding chimeric variants of huNav1.7α in which individual domains are replaced by their huNav1.5α counterparts (chimeras 1 to 4 in FIG. 16) or with chimeric variants of huNav1.5 in which individual domains are replaced by their huNav1.7α counterparts (chimeras 5 to 8 in FIG. 16) fused at the C-terminus via a P2A viral peptide linker to β1-β2-β3 as above. See Table 7 for description of the expression vectors encoding the chimeras, Table 21 and FIG. 16).

[22] = molecular target: T10, huNav157chim1 + β1-β2-β3 (human, UniProt Q15858 1-1962; A5A6L6 19-218; O60939 30-215; Q2KI11 23-215); assay: FACS, transiently transfected HEK293T cells
T10 construct: DI, DII, DIII from Nav1.7α, DIV from Nav1.5α; fused by P2A to β1-β2-β3; also called huNav157 chimera 1
Protocol: as §1, §2

[23] = molecular target: T11, huNav157chim5 + β1-β2-β3 (human); assay: FACS, transiently transfected HEK293T cells
T11 construct: DI, DII, DIII from Nav1.5α, DIV from Nav1.7α; also called huNav157 chimera 5
Protocol: as §1, §2

[24] = molecular target: T12, huNav157chim6 + β1-β2-β3 (human); assay: FACS, transiently transfected HEK293T cells
T12 construct: DI, DII, DIV from Nav1.5α, DIII from Nav1.7α; also called huNav157 chimera 6
Protocol: as §1, §2

[25] = molecular target: T13, huNav157chim12 + β1-β2-β3 (human, UniProt Q15858 1-1988; A5A6L6 19-218; O60939 30-215; Q2KI11 23-215); assay: FACS, transiently transfected HEK293T cells
T13 construct: DI S5-S6 from Nav1.5α, rest Nav1.7α; also called huNav157 chimera 12
Protocol: as §1, §2

[26] = molecular target: T14, huNav157chim4 + β1-β2-β3 (human, UniProt Q15858 44-1988; A5A6L6 19-218; O60939 30-215; Q2KI11 23-215); assay: FACS, transiently transfected HEK293T cells
T14 construct: DII, DIII, DIV from Nav1.7α, DI from Nav1.5α; also called huNav157 chimera 4
Protocol: as §1, §2

[27] = molecular target: T15, huNav1.7α(F276V) + β1-β2-β3 (human, UniProt Q15858 1-1988; A5A6L6 19-218; O60939 30-215; Q2KI11 23-215); assay: binding FACS, CHO FlpIn cells
T15 construct: polyprotein as encoded, P2A sites liberate the subunits; the entry already carries F276V; also called huNav1.7(F276V)-beta1-beta2-beta3
Outline: (§3)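 Flow cytometry binding assay on stable CHO FlpIn cell lines expressing Nav1.7α (human wild type, single DI S5-S6 point variants, or rhesus) with β1-β2-β3. Cells in FACS buffer (PBS, 10% FBS, NaN₃) were plated at 1×10^5 cells/well in 96-well V-bottom plates. FLAG3-tagged ISVDs were added for 30 minutes at 4° C and detected with murine anti-Flag. Dead cells were excluded using 1 μg/mL propidium iodide, and EC50 was determined.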

[28] = molecular target: T16, huNav1.7α(V331M) + β1-β2-β3 (human); assay: binding FACS, CHO FlpIn cells
T16 construct: polyprotein as encoded; the entry already carries V331M; also called huNav1.7(V331M)-beta1-beta2-beta3
Outline: as §3

[29] = molecular target: T17, huNav1.7α + β1-β2-β3 (human, UniProt Q15858 1-1988; A5A6L6 19-218; O60939 30-215; Q2KI11 23-215); assay: binding FACS, CHO FlpIn cells
T17 construct: Cell line (CHO FlpIn, HEK FlpIn, transient HEK293T) is named under assay; also called huNav1.7-beta1-beta2-beta3; human Nav1.7α with Navβ1, Navβ2 and Navβ3
Outline: as §3

[30] = molecular target: T18, huNav1.7α(R277Q) + β1-β2-β3 (human); assay: binding FACS, CHO FlpIn cells
T18 construct: polyprotein as encoded; the entry already carries R277Q; also called huNav1.7(R277Q)-beta1-beta2-beta3
Outline: as §3

[31] = molecular target: T19, huNav1.7α(E281V) + β1-β2-β3 (human); assay: binding FACS, CHO FlpIn cells
T19 construct: polyprotein as encoded; the entry already carries E281V; also called huNav1.7(E281V)-beta1-beta2-beta3
Outline: as §3

[32] = molecular target: T17, huNav1.7α + β1-β2-β3; assay: competition FACS, HEK FlpIn cells, vs EC30 of CMYC3-F0103265B04
Outline: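 HEK FlpIn cells expressing huNav1.7α+β1-β2-β3 (1×10⁵/well) were incubated 1.5 h at 4 °C with a dilution series of purified ISVD plus CMYC3-tagged F0103265B04 at EC30-equivalent concentration in PBS, 2% FBS, 0.05% NaN₃. Flow cytometry read-out with 5 nM TOPRO3 to exclude dead cells.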

B2: F010301656 (VHH)
VHH: EVQLVESGGGLAQPGGSLRLSCAASGPVFNINRMAWYRRAPGKQRELVAYVTPTGDISYTDSVKGRFTISRDGSKRWSLQMNSLTPEDTAVYYCRALLQPDSYSNTRTYWGQGTLVTVSS
notes: also called F0103387G04(K33R, S50Y, S56D, N93R)-FLAG3-HIS6
EC50 [3]: 0.0042 µM
EC50 [4]: 0.0049 µM
IC50 [5]: 0.014 µM
IC50 [6]: 0.037 µM
Qpatch IC50 [M], HEK cells [7]: 6e-09 M
Qpatch IC50 [M], HEK cells [8]: 1.8e-08 M
IC50 [9]: 0.016 µM
IC50 [10]: 0.039 µM
QPatch electrophysiology IC50 [M], HEK cells [11]: 6e-09 M
QPatch electrophysiology IC50 [M], HEK cells [12]: 1.8e-08 M
Human SA ratio [13]: 1
Human SA ratio [14]: 1

B3: F010301877 (VHH)
VHH: EVQLVESGGGVVQPGGSLRLSCATTSRAFIRDVFTGWYRRVPGKERELVARIYNGGNTNYADFAKGRFTISRDNAKNMVYLQMNSLRPEDTALYYCLFSGTINTGREYRSGDYWGQGTLVTVSS
notes: also called F0103464B09(L11V, S68T, K76N, T79Y, R81Q, S82aN, N82bS, K83R, G88A, V89L); K76N
EC50 fold change compared to reference [15]: -2 fold
EC50 fold change compared to reference [16]: -4 fold

B4: F010301452 (VHH)
VHH: EVQLVESGGGLVQPGGSLRLSCAASGPVFNINSMAWYRRAPGKQRELVAYSTPGWDWNYADSVKGRFTISRDNAKRVYLQMNSLTPEDTAVYYCRWLLQPSIYDISRTYWGQGTLVTVSS
notes: Tagless version of F010300659 by its description; also called F0103275B05(S27P, I28V, S50Y, N53P, G55W, S56D, T57W, N93R, A94W)
QPatch electrophysiology IC50 [M], HEK cells [17]: 1.8e-08 M
QPatch electrophysiology IC50 [M], HEK cells [18]: 2.1e-08 M
IC50 [19]: 0.016 µM
IC50 [20]: 0.03 µM

The next lines start with the values.

fold improved binding vs F0103387G04 [1]: 20 fold
fold improved binding vs F0103387G04 [2]: 2 fold
B1: F010302383 (VHH)
VHH: EVQLVESGGGVVQPGGSLRLSCAASGPVFNINRMAWYRQAPGKQRELVAYVTPTGDISYADSVKGRFTISRGGSKRVYLQMNSLRPEDTALYYCRALLQPSSYSGTRTYWGQGTLVTVSS
notes: also called F0103387G04(L11V, A12V, K33R, R39Q, S50Y, S56D, T60A, D72G, W78V, S79Y, T83R, V89L, N93R, D99S, N100cG)+FLAG3-HIS6

binding result [21]: no binding (tested: 1 µM)
binding result [22]: no binding (tested: 1 µM)
binding result [23]: no binding (tested: 1 µM)
binding result [24]: no binding (tested: 1 µM)
binding result [25]: no binding (tested: 1 µM)
binding result [26]: no binding (tested: 1 µM)
EC50 [27]: 0.026 µM
EC50 [28]: 0.021 µM
EC50 [29]: 0.03 µM
EC50 [30]: 0.025 µM
EC50 [31]: 0.024 µM
IC50 [32]: 0.098 µM
B5: F0103275B05 (VHH)
VHH: EVQLVESGGGLVQPGGSLRLSCAASGSIFNINSMAWYRRAPGKQRELVASSTNGGSTNYADSVKGRFTISRDNAKRVYLQMNSLTPEDTAVYYCNALLQPSIYDISRTYWGQGTLVTVSS
notes: entry includes the FLAG-HIS6 tag; also called F0103275B05 (parental)-FLAG-HIS6
